Test [1] concerns the target T1, mouse serum albumin (MSA) (mouse, UniProt P07724 25-608). The test can be described thus: SPR (Biacore) kinetic analysis, MSA, pH 6.0; reference HSA-18 monomer.
Test [2] addresses T1, mouse serum albumin (MSA). In words: binding ELISA on coated MSA, pH 7.4 by the legend (the panel's title prints pH 7).
Test [3] deals with PD-L1 (PD-1/PD-L1 blockade Bioassay, Promega) (UniProt Q9NZQ7 19-290, limits assumed). The test can be described thus: cell-based or functional assay.
PD-L1 (PD-1/PD-L1 blockade Bioassay, Promega), sequence (Q9NZQ7 19-290 limits assumed): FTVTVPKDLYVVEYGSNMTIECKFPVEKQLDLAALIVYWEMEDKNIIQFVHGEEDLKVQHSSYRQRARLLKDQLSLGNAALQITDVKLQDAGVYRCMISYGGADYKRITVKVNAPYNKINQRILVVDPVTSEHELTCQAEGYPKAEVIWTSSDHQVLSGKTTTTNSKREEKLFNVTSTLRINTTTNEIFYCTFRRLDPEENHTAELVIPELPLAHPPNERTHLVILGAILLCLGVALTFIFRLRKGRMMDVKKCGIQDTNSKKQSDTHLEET
The target of test [4] is T2, human PD-L1-Fc (R&D Systems) (human, UniProt Q9NZQ7 19-239).
T2 construct: Bought from R&D Systems; also called rhPD-L1-Fc; human PD-L1 Fc chimeric protein; not shown: the Fc part of the bought chimera is not described
T2 sequence (Q9NZQ7 19-239): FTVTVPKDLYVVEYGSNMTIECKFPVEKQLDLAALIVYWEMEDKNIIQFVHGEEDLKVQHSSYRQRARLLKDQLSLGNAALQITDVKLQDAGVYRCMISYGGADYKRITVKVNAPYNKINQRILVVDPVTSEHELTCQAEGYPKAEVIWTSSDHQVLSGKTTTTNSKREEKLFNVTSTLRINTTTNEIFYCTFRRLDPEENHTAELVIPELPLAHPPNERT
The test can be described thus: SPR (Biacore T200), PD-L1-Fc amine-coupled to CM5 chip, AFFIMER as analyte, 1:1 Langmuir fit. How it is done: To analyze PD-L1-Fc binding kinetics, a Biacore T200 kinetic analysis was performed using running buffer HBS-EP+ and series S sensor CM5 (GE Healthcare) chip Fc2 immobilized with PD-L1-Fc (R&D Systems) in 10 mM sodium acetate pH 4.0 using amine coupling reagents (GE Healthcare). The concentration titration of ILF AFFIMER® proteins was run as analyte at a flow rate of 30 μl/min. […] with 3 mM NaOH (GE healthcare) for 20 seconds at 20 μl/min flow rate. The Fc2-1 data blank was subtracted and fit to a 1:1 Langmuir binding model (Biacore evaluation software; GE) to calculate an apparent KD value.
In general terms: SPR reads the build-up and loss of mass on a sensor chip optically.

In test [5] the target is T3, human serum albumin (HSA) (human, UniProt P02768 25-609).
T3 construct: mature; also called HuSA; HSA (Sigma)
T3 sequence (P02768 25-609): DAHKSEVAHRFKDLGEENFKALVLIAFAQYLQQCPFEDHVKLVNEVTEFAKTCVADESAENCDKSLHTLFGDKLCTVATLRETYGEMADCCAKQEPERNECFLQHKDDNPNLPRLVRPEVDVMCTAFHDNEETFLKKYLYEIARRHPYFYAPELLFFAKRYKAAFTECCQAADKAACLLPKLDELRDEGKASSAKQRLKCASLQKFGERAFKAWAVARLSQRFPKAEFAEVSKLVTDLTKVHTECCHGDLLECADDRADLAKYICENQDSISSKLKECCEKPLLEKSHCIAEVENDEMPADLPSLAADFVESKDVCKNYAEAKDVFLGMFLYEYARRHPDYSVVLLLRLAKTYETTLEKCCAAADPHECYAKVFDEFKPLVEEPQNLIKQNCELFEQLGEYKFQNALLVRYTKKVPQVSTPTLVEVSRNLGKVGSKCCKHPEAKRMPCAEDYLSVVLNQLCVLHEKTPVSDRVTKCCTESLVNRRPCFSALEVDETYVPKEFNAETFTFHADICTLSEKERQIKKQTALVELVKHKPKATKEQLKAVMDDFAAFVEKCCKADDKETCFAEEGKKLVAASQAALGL
The test can be described thus: SPR (Biacore) kinetic analysis, pH 6.0 and pH 7.4 running buffer; the pH for each end is not stated; lower end of the range; pH 6.0 or pH 7.4 not told.

The results in this text go back to patent US20230272081A1 (AVACTA LIFE SCIENCES, published 2023).

B1: AVA04-251 XT60 (designed binder)
chain: MIPRGLSEAKPATPEIQEIVDKVKPQLEEKTNETYGKLEAVQYKTQVLAREGRQDWVLSTNYYIKVRAGDNKYMHLKVFNGPWVPFPHQQLADRVLTGYQVDKNKDDELTGFAEAAAKEAAAKEAAAKEAAAKEAAAKEAAAKMIPRGLSEAKPATPEIQEIVDKVKPQLEEKTNETYGKLEAVQYKTQVLAREGRQDWVLSTNYYIKVRAGDNKYMHLKVFNGPWVPFPHQQLADRVLTGYQVDKNKDDELTGFAEAAAKEAAAKEAAAKEAAAKEAAAKEAAAKMIPRGLSEAKPATPEIQEIVDKVKPQLEEKTNETYGKLEAVQYKTQVLADWWQAKWPHSTNYYIKVRAGDNKYMHLKVFNGPYKVHQSSGGADRVLTGYQVDKNKDDELTGFHHHHHH
notes: Made in E. coli and purified on NiNTA
In the case of B1, in test [1], the “fold of the monomer serum albumin binding AFFIMER affinity” value was ≤ 2 fold.

B2: HSA-41 (designed binder)
chain: MIPRGLSEAKPATPEIQEIVDKVKPQLEEKTNETYGKLEAVQYKTQVLANFFQRRWPGSTNYYIKVRAGDNKYMHLKVFNGPWKFRNTDRGADRVLTGYQVDKNKDDELTGFHHHHHH
notes: Made in E. coli; also called AVA-41; AFFIMER® XT “AVA-41”
Take B2: the EC50 (read off the curve) (commonly the concentration that produces a half-maximal response) in test [2] is ~5 nM.

B3: AVA04-251 XT14 (designed binder)
chain: MIPRGLSEAKPATPEIQEIVDKVKPQLEEKTNETYGKLEAVQYKTQVLAREGRQDWVLSTNYYIKVRAGDNKYMHLKVFNGPWVPFPHQQLADRVLTGYQVDKNKDDELTGFAEAAAKEAAAKEAAAKEAAAKEAAAKEAAAKMIPRGLSEAKPATPEIQEIVDKVKPQLEEKTNETYGKLEAVQYKTQVLAREGRQDWVLSTNYYIKVRAGDNKYMHLKVFNGPWVPFPHQQLADRVLTGYQVDKNKDDELTGFAEAAAKEAAAKEAAAKEAAAKEAAAKEAAAKMIPRGLSEAKPATPEIQEIVDKVKPQLEEKTNETYGKLEAVQYKTQVLANFFQRRWPGSTNYYIKVRAGDNKYMHLKVFNGPWKFRNTDRGADRVLTGYQVDKNKDDELTGFHHHHHH
B3: the “half-maximal concentration in the PD-1/PD-L1 blockade Bioassay (Promega), fold change relative to assay buffer; the table's head prints IC50 (nM), the text calls it EC50” value in test [3] is 176 nM.

B4: AVA04-261 (designed binder)
chain: MIPRGLSEAKPATPEIQEIVDKVKPQLEEKTNETYGKLEAVQYKTQVLAHAYGPRDWDSTNYYIKVRAGDNKYMHLKVFNGPPADHVLEEAADRVLTGYQVDKNKDDELTGFHHHHHH
For B4, in test [4], the Kd – broadly, a measure of binding affinity in units of concentration – came out at 2.95 nM; the koff (commonly the rate constant with which the complex falls apart) was 0.0109 s⁻¹; the kon (commonly the second-order rate constant of association) is 3.68e+06 M⁻¹ s⁻¹.

B5: AVA04-251 XT15 (designed binder)
chain: MIPRGLSEAKPATPEIQEIVDKVKPQLEEKTNETYGKLEAVQYKTQVLAREGRQDWVLSTNYYIKVRAGDNKYMHLKVFNGPWVPFPHQQLADRVLTGYQVDKNKDDELTGFAEAAAKEAAAKEAAAKEAAAKEAAAKEAAAKMIPRGLSEAKPATPEIQEIVDKVKPQLEEKTNETYGKLEAVQYKTQVLANFFQRRWPGSTNYYIKVRAGDNKYMHLKVFNGPWKFRNTDRGADRVLTGYQVDKNKDDELTGFAEAAAKEAAAKEAAAKEAAAKEAAAKEAAAKMIPRGLSEAKPATPEIQEIVDKVKPQLEEKTNETYGKLEAVQYKTQVLAREGRQDWVLSTNYYIKVRAGDNKYMHLKVFNGPWVPFPHQQLADRVLTGYQVDKNKDDELTGFHHHHHH
For the molecule B5, the “half-maximal concentration in the PD-1/PD-L1 blockade Bioassay (Promega), fold change relative to assay buffer; the table's head prints IC50 (nM), the text calls it EC50” value in test [3] was 434 nM.

B6: AVA04-251 XT61 (designed binder)
chain: MIPRGLSEAKPATPEIQEIVDKVKPQLEEKTNETYGKLEAVQYKTQVLAREGRQDWVLSTNYYIKVRAGDNKYMHLKVFNGPWVPFPHQQLADRVLTGYQVDKNKDDELTGFAEAAAKEAAAKEAAAKEAAAKEAAAKEAAAKMIPRGLSEAKPATPEIQEIVDKVKPQLEEKTNETYGKLEAVQYKTQVLADWWQAKWPHSTNYYIKVRAGDNKYMHLKVFNGPYKVHQSSGGADRVLTGYQVDKNKDDELTGFAEAAAKEAAAKEAAAKEAAAKEAAAKEAAAKMIPRGLSEAKPATPEIQEIVDKVKPQLEEKTNETYGKLEAVQYKTQVLAREGRQDWVLSTNYYIKVRAGDNKYMHLKVFNGPWVPFPHQQLADRVLTGYQVDKNKDDELTGFHHHHHH
notes: as for B1
On to B6, for which the “fold of the monomer serum albumin binding AFFIMER affinity” value in test [1] is ≤ 2 fold.

B7: HSA-18 (designed binder)
chain: MIPRGLSEAKPATPEIQEIVDKVKPQLEEKTNETYGKLEAVQYKTQVLADWWQAKWPHSTNYYIKVRAGDNKYMHLKVFNGPYKVHQSSGGADRVLTGYQVDKNKDDELTGFHHHHHH
notes: also called HSA-18 monomer
Molecule B7 showed a Kd in test [5] of 109 to 152 nM.

B8: AVA04-236 (designed binder)
chain: MIPRGLSEAKPATPEIQEIVDKVKPQLEEKTNETYGKLEAVQYKTQVLAKEHGPDSWWSTNYYIKVRAGDNKYMHLKVFNGPQEKNQWVEEADRVLTGYQVDKNKDDELTGFHHHHHH
In the case of B8, in test [4], the Kd amounted to 5.43 nM, the off-rate constant (koff) worked out at 0.00977 s⁻¹ and the kon was determined as 1.8e+06 M⁻¹ s⁻¹.

B9: AVA04-269 (designed binder)
chain: MIPRGLSEAKPATPEIQEIVDKVKPQLEEKTNETYGKLEAVQYKTQVLAKEYGPEEWWSTNYYIKVRAGDNKYMHLKVFNGPGDYEQVLIHADRVLTGYQVDKNKDDELTGFHHHHHH
In test [4], B9 registered an equilibrium dissociation constant (Kd) of 1.68 nM, a koff of 0.00345 s⁻¹ and a kon of 2.05e+06 M⁻¹ s⁻¹.
